From publication PMC5938345 come the findings set out here.

Experiment [1] addresses gp350-ECDFL-Fc_(mIgG2a) (Epstein-Barr virus (strain M81) | mouse) (UniProt P03200). Description: SPR; Biacore T200; the three recombinant gp350s immobilised on CM5 chip at pH 5.5 with low RU to avoid avidity; MBP-hCR2 SCR1-2 injected at 30 µl/min; regeneration with 10 mM glycine-HCl pH 1.5; 1:1 fit. (In general: SPR reads the build-up and loss of mass on a sensor chip optically.)

Experiment [2] has as its target gp350-ECD123-Fc_(mIgG2a) (Epstein-Barr virus (strain M81) | mouse) (UniProt P03200). The experiment is described as above.
The target in experiment [3] is gp350-ECD123-6His (Epstein-Barr virus (strain M81)) (UniProt P03200). Described as above.
Experiment [4] deals with gp350-ECD123-Fc_(mIgG2a) (Epstein-Barr virus (strain M81) | mouse) (UniProt P03200). Description: SDS-PAGE under reducing and non-reducing conditions with Western blot; 15 µl supernatants of passage 1 baculovirus stocks, with and without β-ME, 10% SDS-PAGE; detected by anti-His or anti-mouse Fc antibody. For orientation: In western blotting, separated proteins are transferred to a membrane and probed.

For experiment [5] the target is unchanged. Description: AUC; sedimentation velocity, 20°C, PBS, 35,000 rpm, samples diluted to 1 OD at 280 nm; c(s) and c(M) in Sedfit.
For experiment [6], the target named is gp350-ECDFL-Fc_(mIgG2a) (Epstein-Barr virus (strain M81) | mouse) (UniProt P03200). Description: SDS-PAGE under reducing and non-reducing conditions with Western blot; 15 µl supernatants of passage 1 baculovirus stocks, with and without β-ME, 10% SDS-PAGE; detected by anti-His or anti-mouse Fc antibody.
The target is the same in experiment [7]. Description: AUC; sedimentation velocity, 20°C, PBS, 35,000 rpm, samples diluted to 1 OD at 280 nm; c(s) and c(M) in Sedfit.

With MBP-hCR2 SCR1-2 (domain or fragment), in experiment [1], the Kd was determined as 68.5 nM, the koff was determined as 0.0012 s⁻¹ and the kon is 17600 M⁻¹ s⁻¹. Moreover, in experiment [2], the Kd is 94.6 nM, the koff was determined as 0.00383 s⁻¹ and the kon worked out at 40500 M⁻¹ s⁻¹. In experiment [3], the Kd was determined as 294 nM, the koff came out at 0.00141 s⁻¹ and the kon came to 4780 M⁻¹ s⁻¹.
As to “gp350-ECD123-Fc_(mIgG2a) (from UniProt P03200-1 1-425) (Fc fusion)”, the stoichiometry N in experiment [4] and in experiment [5] was 2 each time.
Regarding “gp350-ECDFL-Fc_(mIgG2a) (from UniProt P03200-1 1-803) (Fc fusion)”, the stoichiometry N in experiment [6] and in experiment [7] was 2 in each case.

The koff is the rate constant with which the complex falls apart. Broadly, the kon is the second-order rate constant of association. The stoichiometry N is a count of units in the complex or per binding partner.
